This series deals with the molecule itself. The experiment in a line: native gel or EMSA.

Data on one protein can be found in publication PMC8362844 (Molecular pharmaceutics, 2020).

As a reminder, the stoichiometry N is a count of units in the complex or per binding partner.

B1: recombinant human alpha-N-acetylglucosamine-6-sulfatase with C-terminal c-myc tag (enzyme, UniProt P15586-1 37-552, looked up)
chain: VFGVAAGTRRPNVVLLLTDDQDEVLGGMTPLKKTKALIGEMGMTFSSAYVPSALCCPSRASILTGKYPHNHHVVNNTLEGNCSSKSWQKIQEPNTFPAILRSMCGYQTFFAGKYLNEYGAPDAGGLEHVPLGWSYWYALEKNSKYYNYTLSINGKARKHGENYSVDYLTDVLANVSLDFLDYKSNFEPFFMMIATPAPHSPWTAAPQYQKAFQNVFAPRNKNFNIHGTNKHWLIRQAKTPMTNSSIQFLDNAFRKRWQTLLSVDDLVEKLVKRLEFTGELNNTYIFYTSDNGYHTGQFSLPIDKRQLYEFDIKVPLLVRGPGIKPNQTSKMLVANIDLGPTILDIAGYDLNKTQMDGMSLLPILRGASNLTWRSDVLVEYQGEGRNVTDPTCPSLSPGVSQCFPDCVCEDAYNNTYACVRTMSALWNLQYCEFDDQEVFVEVYNLTADPDQITNIAKTIDPELLGKMNYRLMMLQSCSGPTCRTPGVFDPGYRFDPRLMFSNRGSVRTRRFSKHLL
modifications: N-glycosylated with high-mannose residues; mannose-6 phosphorylated at approximately 0.87% (W/W)
With B1, the “stoichiometry N” value came out at 2.
